Source: patent publication US20200087364A1 (IMMATICS BIOTECHNOLOGIES, published 2020)

B1: ELCPLPGTSAY (peptide)
peptide: ELCPLPGTSAY
B2: QSLPEFGLTYY (peptide)
peptide: QSLPEFGLTYY
B3: YLENSASWY (peptide)
peptide: YLENSASWY
B4: TSRAANIPGY (peptide)
peptide: TSRAANIPGY
B5: NSAINPLIY (peptide)
peptide: NSAINPLIY
B6: EVYDGREHSAY (peptide)
peptide: EVYDGREHSAY
B7: VTEYAEEIYQY (peptide)
peptide: VTEYAEEIYQY
B8: NLDPNKIY (peptide)
peptide: NLDPNKIY
B9: YLEDRPLSQLY (peptide)
peptide: YLEDRPLSQLY
B10: NVDQNQNSY (peptide)
peptide: NVDQNQNSY
B11: YYYDTHTNTY (peptide)
peptide: YYYDTHTNTY
B12: WSDGVPLLY (peptide)
peptide: WSDGVPLLY
B13: ITDEDEDMLSY (peptide)
peptide: ITDEDEDMLSY
B14: SSDNYEHWLY (peptide)
peptide: SSDNYEHWLY
B15: HSDLLEDSKY (peptide)
peptide: HSDLLEDSKY
B16: RIEAIRAEY (peptide)
peptide: RIEAIRAEY
B17: NFSDLVFTY (peptide)
peptide: NFSDLVFTY
B18: ASDVDTLLK (peptide)
peptide: ASDVDTLLK
B19: FTTQDELLVY (peptide)
peptide: FTTQDELLVY
B20: EMEQQSQEY (peptide)
peptide: EMEQQSQEY
B21: FTSDTGLEY (peptide)
peptide: FTSDTGLEY
B22: YEDHFPLLF (peptide)
peptide: YEDHFPLLF
B23: ASDDVRIEVGLY (peptide)
peptide: ASDDVRIEVGLY
B24: KPSAVKDSIY (peptide)
peptide: KPSAVKDSIY
B25: SSDFDPLVY (peptide)
peptide: SSDFDPLVY
B26: KEVDPAGHSYI (peptide)
peptide: KEVDPAGHSYI
B27: STDSASYY (peptide)
peptide: STDSASYY
B28: QLDSAVKNLY (peptide)
peptide: QLDSAVKNLY
B29: ATEGDVLNY (peptide)
peptide: ATEGDVLNY
B30: FMVIAGMPLFY (peptide)
peptide: FMVIAGMPLFY
B31: FTDYELKAY (peptide)
peptide: FTDYELKAY
B32: STEERRLNY (peptide)
peptide: STEERRLNY
B33: ASDLEPRELLSY (peptide)
peptide: ASDLEPRELLSY
B34: TTDDTTAMASAS (peptide)
peptide: TTDDTTAMASAS
B35: SSDIVALGGFLY (peptide)
peptide: SSDIVALGGFLY
B36: SSDPKAVMF (peptide)
peptide: SSDPKAVMF
B37: FPAPPAHWFY (peptide)
peptide: FPAPPAHWFY
B38: AFDDIATYF (peptide)
peptide: AFDDIATYF
B39: LTDSTTRTTY (peptide)
peptide: LTDSTTRTTY
B40: TSEISQNALMY (peptide)
peptide: TSEISQNALMY
B41: YSDLHTPGRY (peptide)
peptide: YSDLHTPGRY
B42: AADSNPSEL (peptide)
peptide: AADSNPSEL
B43: QLDSTLDSY (peptide)
peptide: QLDSTLDSY
B44: QTDVERIKDTY (peptide)
peptide: QTDVERIKDTY
B45: MTEKFLFLY (peptide)
peptide: MTEKFLFLY
B46: YTELVEEKY (peptide)
peptide: YTELVEEKY
B47: HLKILSPIY (peptide)
peptide: HLKILSPIY
B48: EVDIHTIHY (peptide)
peptide: EVDIHTIHY
B49: LTEKSHIRY (peptide)
peptide: LTEKSHIRY
B50: TSEISQNALMYY (peptide)
peptide: TSEISQNALMYY
B51: IPSFNEMVY (peptide)
peptide: IPSFNEMVY
B52: FTDSQGNDIK (peptide)
peptide: FTDSQGNDIK
B53: VTDSTTKIAY (peptide)
peptide: VTDSTTKIAY
B54: SITDVDFIY (peptide)
peptide: SITDVDFIY
B55: DTEFHGGLHY (peptide)
peptide: DTEFHGGLHY
B56: VDPASNTY (peptide)
peptide: VDPASNTY
B57: ETEPERHLGSY (peptide)
peptide: ETEPERHLGSY
B58: QSLPEFGLTY (peptide)
peptide: QSLPEFGLTY
B59: RSDPGGGGLAYAAY (peptide)
peptide: RSDPGGGGLAYAAY
B60: STIRGELFF (peptide)
peptide: STIRGELFF
B61: VSELVTTGHY (peptide)
peptide: VSELVTTGHY
B62: ASDPASSTSCY (peptide)
peptide: ASDPASSTSCY
B63: GSFSIQHTY (peptide)
peptide: GSFSIQHTY
B64: TSDQLGYSY (peptide)
peptide: TSDQLGYSY
B65: TTSSAISWILY (peptide)
peptide: TTSSAISWILY
B66: TTQDELLVY (peptide)
peptide: TTQDELLVY
B67: ESEMIKFASYY (peptide)
peptide: ESEMIKFASYY
B68: ARDPITFSF (peptide)
peptide: ARDPITFSF

What follows are binders tested against T1, HLA-A*01:01 (human) (assay: UV-ligand exchange, anti-b2m ELISA).
T1 construct: MHC class I monomer first loaded with a UV-sensitive peptide (not identified) that is cleaved by UV irradiation and exchanged for the tested peptide; captured on streptavidin plates, detected with anti-β2m; also called peptide-receptive MHC molecules
How it was run: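 Peptide–MHC complexes made by UV-ligand exchange of a UV-cleavable peptide; exchange yield measured by ELISA on streptavidin-coated plates, samples diluted 100-fold, 1 h 37 °C. Detection with 2 ug/ml HRP anti-β2m, TMB, A450; refolded HLA-A*02:01/MLA-001 monomer standards 15-500 ng/ml.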
For B1, the peptide exchange yield was 20 to 50%.
Binder B2 has a peptide exchange yield of 20 to 50%.
B3 gave a peptide exchange yield greater than 75%.
Work on B4 yielded a peptide exchange yield of 10 to 20%.
Binder B5 has a peptide exchange yield greater than 75%.
For B6, the peptide exchange yield was 20 to 50%.
With B7 the peptide exchange yield was 50 to 75%.
B8 was tested, and the peptide exchange yield was 10 to 20%.
B9 showed a peptide exchange yield greater than 75%.
For B10, the peptide exchange yield was 50 to 75%.
B11 showed a peptide exchange yield of 10 to 20%.
Work on B12 yielded a peptide exchange yield greater than 75%.
With B13 the peptide exchange yield was 50 to 75%.
Binder B14 has a peptide exchange yield greater than 75%.
B15 was tested, and the peptide exchange yield was 50 to 75%.
Work on B16 yielded a peptide exchange yield of 20 to 50%.
For B17, the peptide exchange yield was 20 to 50%.
B18 gave a peptide exchange yield of 50 to 75%.
B19 showed a peptide exchange yield of 50 to 75%.
B20 was tested, and the peptide exchange yield was greater than 75%.
In the case of B21, the peptide exchange yield is reported as greater than 75%.
In the case of B22, the peptide exchange yield is reported as 20 to 50%.
B23 gave a peptide exchange yield greater than 75%.
Work on B24 yielded a peptide exchange yield of 20 to 50%.
B25 was tested, and the peptide exchange yield was greater than 75%.
B26 gave a peptide exchange yield of 20 to 50%.
B27 was tested, and the peptide exchange yield was greater than 75%.
In the case of B28, the peptide exchange yield is reported as 50 to 75%.
Work on B29 yielded a peptide exchange yield of 50 to 75%.
B30 showed a peptide exchange yield of 50 to 75%.
Binder B31 has a peptide exchange yield greater than 75%.
In the case of B32, the peptide exchange yield is reported as 50 to 75%.
In the case of B33, the peptide exchange yield is reported as 50 to 75%.
With B34 the peptide exchange yield was 20 to 50%.
With B35 the peptide exchange yield was 50 to 75%.
Binder B36 has a peptide exchange yield of 20 to 50%.
With B37 the peptide exchange yield was 20 to 50%.
Binder B38 has a peptide exchange yield of 20 to 50%.
With B39 the peptide exchange yield was 50 to 75%.
Binder B40 has a peptide exchange yield greater than 75%.
B41 was tested, and the peptide exchange yield was 50 to 75%.
In the case of B42, the peptide exchange yield is reported as 20 to 50%.
B43 showed a peptide exchange yield of 50 to 75%.
B44 gave a peptide exchange yield of 50 to 75%.
B45 showed a peptide exchange yield greater than 75%.
B46 was tested, and the peptide exchange yield was 50 to 75%.
With B47 the peptide exchange yield was 50 to 75%.
Binder B48 has a peptide exchange yield of 50 to 75%.
Work on B49 yielded a peptide exchange yield of 50 to 75%.
B50 showed a peptide exchange yield of 50 to 75%.
B51 gave a peptide exchange yield of 20 to 50%.
Work on B52 yielded a peptide exchange yield of 50 to 75%.
B53 was tested, and the peptide exchange yield was 50 to 75%.
B54 showed a peptide exchange yield of 20 to 50%.
For B55, the peptide exchange yield was 50 to 75%.
With B56 the peptide exchange yield was 20 to 50%.
B57 gave a peptide exchange yield of 50 to 75%.
For B58, the peptide exchange yield was 20 to 50%.
Work on B59 yielded a peptide exchange yield greater than 75%.
B60 showed a peptide exchange yield of 20 to 50%.
B61 gave a peptide exchange yield of 50 to 75%.
With B62 the peptide exchange yield was 50 to 75%.
B63 was tested, and the peptide exchange yield was 20 to 50%.
B64 was tested, and the peptide exchange yield was 50 to 75%.
Binder B65 has a peptide exchange yield of 50 to 75%.
In the case of B66, the peptide exchange yield is reported as 50 to 75%.
With B67 the peptide exchange yield was greater than 75%.
B68 showed a peptide exchange yield of 20 to 50%.
